Experiments:
Assay in all cases: cell-based or functional assay
hCXCR4 (human) = hCXCR4 (human) (UniProt P61073)
hCCR9 (human) = hCCR9 (human) (UniProt P51686)
CCR6 (human) = CCR6 (human) (UniProt P51684)
hCCR10 (human) = hCCR10 (human) (UniProt P46092)
hCXCR3 (human) = hCXCR3 (human) (UniProt P49682)
hCCR2b (human) = hCCR2b (human) (UniProt P41597)
CCR4 (human) = CCR4 (human) (UniProt P51679)
[1] = biological target: chemokine receptor CCR7 (human) (UniProt P32248)
Sequence of chemokine receptor CCR7 (human) (P32248 25-378): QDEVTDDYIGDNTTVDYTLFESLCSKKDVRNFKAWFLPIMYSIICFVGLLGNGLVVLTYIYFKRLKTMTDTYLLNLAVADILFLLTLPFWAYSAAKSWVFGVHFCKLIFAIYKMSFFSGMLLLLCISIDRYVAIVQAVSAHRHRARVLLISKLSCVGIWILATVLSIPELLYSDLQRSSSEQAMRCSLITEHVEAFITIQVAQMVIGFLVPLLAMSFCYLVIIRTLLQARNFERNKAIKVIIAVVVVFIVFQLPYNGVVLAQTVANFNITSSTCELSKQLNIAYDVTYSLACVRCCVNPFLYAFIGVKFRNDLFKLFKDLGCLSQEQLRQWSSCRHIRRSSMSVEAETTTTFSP

Sequence of hCCR9 (human) (P51686 whole entry): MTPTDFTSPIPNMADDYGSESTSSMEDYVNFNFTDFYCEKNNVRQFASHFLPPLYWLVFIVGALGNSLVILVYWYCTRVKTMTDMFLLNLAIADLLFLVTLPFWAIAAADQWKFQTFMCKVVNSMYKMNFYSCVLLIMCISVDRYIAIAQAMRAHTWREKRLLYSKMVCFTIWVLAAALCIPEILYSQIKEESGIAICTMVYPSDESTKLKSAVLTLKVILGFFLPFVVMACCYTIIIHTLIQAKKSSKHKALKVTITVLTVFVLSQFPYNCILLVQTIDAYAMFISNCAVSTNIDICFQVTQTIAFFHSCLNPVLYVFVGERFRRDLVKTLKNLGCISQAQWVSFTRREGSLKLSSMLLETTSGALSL
Sequence of CCR4 (human) (P51679 whole entry): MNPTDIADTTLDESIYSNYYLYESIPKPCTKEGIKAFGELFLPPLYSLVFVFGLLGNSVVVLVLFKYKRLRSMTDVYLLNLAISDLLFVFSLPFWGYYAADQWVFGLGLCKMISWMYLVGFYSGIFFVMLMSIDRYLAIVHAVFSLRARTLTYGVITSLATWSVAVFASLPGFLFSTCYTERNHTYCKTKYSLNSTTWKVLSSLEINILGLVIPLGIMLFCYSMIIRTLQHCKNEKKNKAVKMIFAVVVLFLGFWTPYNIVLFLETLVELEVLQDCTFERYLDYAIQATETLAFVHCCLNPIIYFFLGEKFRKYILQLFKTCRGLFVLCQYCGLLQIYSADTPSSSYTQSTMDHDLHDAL
Sequence of hCXCR3 (human) (P49682 whole entry): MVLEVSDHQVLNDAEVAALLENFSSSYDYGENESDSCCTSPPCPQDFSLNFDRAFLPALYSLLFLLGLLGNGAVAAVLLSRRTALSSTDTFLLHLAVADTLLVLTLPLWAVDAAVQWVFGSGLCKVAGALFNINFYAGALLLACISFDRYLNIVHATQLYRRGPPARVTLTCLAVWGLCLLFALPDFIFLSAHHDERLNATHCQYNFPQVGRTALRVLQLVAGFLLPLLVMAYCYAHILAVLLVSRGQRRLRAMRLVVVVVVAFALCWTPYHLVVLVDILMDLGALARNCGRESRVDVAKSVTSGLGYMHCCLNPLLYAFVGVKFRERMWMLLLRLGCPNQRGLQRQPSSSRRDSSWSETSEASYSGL
Sequence of CCR6 (human) (P51684 whole entry): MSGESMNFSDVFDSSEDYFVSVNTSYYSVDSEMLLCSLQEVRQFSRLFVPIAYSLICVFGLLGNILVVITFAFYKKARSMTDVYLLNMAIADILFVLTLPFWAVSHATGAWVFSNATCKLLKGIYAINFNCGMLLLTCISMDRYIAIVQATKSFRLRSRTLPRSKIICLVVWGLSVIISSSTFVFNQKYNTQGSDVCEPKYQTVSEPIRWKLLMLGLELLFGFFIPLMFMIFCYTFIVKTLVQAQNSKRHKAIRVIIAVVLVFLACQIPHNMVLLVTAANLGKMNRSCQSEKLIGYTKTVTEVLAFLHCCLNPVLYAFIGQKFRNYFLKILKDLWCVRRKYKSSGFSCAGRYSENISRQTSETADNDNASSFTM
Sequence of hCCR10 (human) (P46092 whole entry): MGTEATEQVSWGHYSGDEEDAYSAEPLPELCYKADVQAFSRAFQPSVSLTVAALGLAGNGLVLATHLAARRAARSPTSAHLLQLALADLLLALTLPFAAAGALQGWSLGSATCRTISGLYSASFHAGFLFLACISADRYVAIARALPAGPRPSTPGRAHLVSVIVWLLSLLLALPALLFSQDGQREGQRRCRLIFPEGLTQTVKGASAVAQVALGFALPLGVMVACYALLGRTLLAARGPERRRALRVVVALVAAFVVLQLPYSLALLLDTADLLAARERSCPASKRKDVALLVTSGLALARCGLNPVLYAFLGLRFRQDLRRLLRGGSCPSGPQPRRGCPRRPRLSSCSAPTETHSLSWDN
Sequence of hCXCR4 (human) (P61073 whole entry): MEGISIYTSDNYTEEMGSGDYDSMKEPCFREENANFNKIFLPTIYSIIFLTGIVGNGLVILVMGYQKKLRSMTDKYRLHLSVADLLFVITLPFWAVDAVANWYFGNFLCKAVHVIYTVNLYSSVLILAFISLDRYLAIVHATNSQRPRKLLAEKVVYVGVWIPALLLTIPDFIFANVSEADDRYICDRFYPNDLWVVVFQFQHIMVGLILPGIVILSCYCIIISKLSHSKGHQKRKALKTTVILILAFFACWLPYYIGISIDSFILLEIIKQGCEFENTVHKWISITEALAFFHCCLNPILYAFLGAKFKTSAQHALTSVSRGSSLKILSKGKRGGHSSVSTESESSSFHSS
Sequence of hCCR2b (human) (P41597 other isoform, or with tags, fused parts or gaps limits assumed): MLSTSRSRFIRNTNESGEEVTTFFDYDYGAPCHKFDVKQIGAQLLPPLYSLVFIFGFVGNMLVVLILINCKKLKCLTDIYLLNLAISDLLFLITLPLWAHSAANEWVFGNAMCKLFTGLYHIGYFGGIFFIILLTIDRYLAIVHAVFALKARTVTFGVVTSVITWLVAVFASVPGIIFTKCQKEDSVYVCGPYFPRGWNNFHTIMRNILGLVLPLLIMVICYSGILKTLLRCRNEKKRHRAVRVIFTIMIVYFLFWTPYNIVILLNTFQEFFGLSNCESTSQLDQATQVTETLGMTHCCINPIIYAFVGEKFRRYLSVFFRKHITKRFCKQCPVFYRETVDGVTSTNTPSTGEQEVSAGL

An EC50, agonist activity, Aequorin assay (hCXCR4 (human)) of 17.3 nM was found for “biotinSDF-1α (CXCL12), SDF-1α derivatised at the ε-amino side chain functionality of Lys(64) with Biotin (from UniProt P48061 22-67) (ligand)” in this work.
An EC50, agonist activity, Aequorin assay (hCCR9 (human)) of 63.6 nM was found for “biotinTECK(Met to Nleu substitution) (CCL25), derivatised at the ε-amino side chain functionality of Lys72 with PEG-Biotin (from UniProt O15444 25-97) (ligand)” in this work.
“biotinylated MIP-3alpha (from UniProt P78556 27-96) (ligand)” was tested, and the reduction of CCR6-expressing cells by the column (flow cytometry before and after passage) (CCR6 (human)) was < 15%.
An EC50, agonist activity, Aequorin assay (hCCR10 (human)) of 33.5 nM was found for “recombinant native CTAC (from UniProt Q9Y4X3 25-112) (ligand)” in this work.
An EC50, agonist activity, Aequorin assay (hCXCR3 (human)) of 4.4 nM was found for “recombinant native IP-10 (from UniProt P02778 22-98) (ligand)” in this work.
An EC50, agonist activity, Aequorin assay (hCXCR3 (human)) of 0.7 nM was found for “recombinant native ITAC (from UniProt O14625 22-94) (ligand)” in this work.
An EC50, Aequorin assay (partial agonist) (hCCR2b (human)) of 23.5 nM was found for “recombinant native MCP-2 (from UniProt P80075 24-99) (ligand)” in this work.
An EC50, agonist activity, Aequorin assay (CCR4 (human)) of 3.6 nM was found for “recombinant native MDC (from UniProt O00626 25-93) (ligand)” in this work.
An EC50, agonist activity, Aequorin assay (CCR6 (human)) of 1 nM was found for “recombinant native MIP-3α (from UniProt P78556 27-96) (ligand)” in this work.
An EC50, agonist activity, Aequorin assay [1] of 1.6 nM was found for “recombinant native MIP-3β (from UniProt Q99731 22-98) (ligand)” in this work.
An EC50, agonist activity, Aequorin assay (CCR4 (human)) of 2.6 nM was found for “recombinant native TARC (from UniProt Q92583 24-94) (ligand)” in this work.
An EC50, agonist activity, Aequorin assay (hCCR9 (human)) of 67.9 nM was found for “recombinant native TECK (from UniProt O15444 24-150) (ligand)” in this work.

From patent publication EP2717941B1
